In patent US20250289894A1 (MORPHIC THERAPEUTIC, published 2025):
Like-named read-outs stand apart in the source and are kept apart here.

T1: human α7 calf-1 protein (human, UniProt Q13683 688-848)
T1 construct: also called Calf-1 domain
T1 sequence: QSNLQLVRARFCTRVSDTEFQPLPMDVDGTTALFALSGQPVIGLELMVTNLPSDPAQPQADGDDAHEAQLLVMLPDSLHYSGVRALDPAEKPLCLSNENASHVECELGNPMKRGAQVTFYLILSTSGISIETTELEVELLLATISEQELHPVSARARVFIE

T2: Mouse Leg α7 (mouse, UniProt Q61738 679-1076, limits assumed)
T2 construct: domain: Leg α7
T2 sequence (looked up): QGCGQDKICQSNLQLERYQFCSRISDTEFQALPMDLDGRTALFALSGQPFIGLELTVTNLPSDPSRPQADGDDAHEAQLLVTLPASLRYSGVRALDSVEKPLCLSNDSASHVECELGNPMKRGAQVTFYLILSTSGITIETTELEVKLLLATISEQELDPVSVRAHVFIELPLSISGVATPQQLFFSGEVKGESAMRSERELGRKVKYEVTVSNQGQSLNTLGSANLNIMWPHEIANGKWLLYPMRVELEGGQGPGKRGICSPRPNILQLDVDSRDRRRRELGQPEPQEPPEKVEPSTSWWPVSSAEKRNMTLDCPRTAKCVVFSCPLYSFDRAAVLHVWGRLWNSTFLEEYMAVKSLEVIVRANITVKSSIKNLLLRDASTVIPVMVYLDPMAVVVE

T3: Human Leg α7 (human, UniProt Q13683 679-1078)
T3 construct: also called human α7 leg; leg domain of human α7
T3 sequence: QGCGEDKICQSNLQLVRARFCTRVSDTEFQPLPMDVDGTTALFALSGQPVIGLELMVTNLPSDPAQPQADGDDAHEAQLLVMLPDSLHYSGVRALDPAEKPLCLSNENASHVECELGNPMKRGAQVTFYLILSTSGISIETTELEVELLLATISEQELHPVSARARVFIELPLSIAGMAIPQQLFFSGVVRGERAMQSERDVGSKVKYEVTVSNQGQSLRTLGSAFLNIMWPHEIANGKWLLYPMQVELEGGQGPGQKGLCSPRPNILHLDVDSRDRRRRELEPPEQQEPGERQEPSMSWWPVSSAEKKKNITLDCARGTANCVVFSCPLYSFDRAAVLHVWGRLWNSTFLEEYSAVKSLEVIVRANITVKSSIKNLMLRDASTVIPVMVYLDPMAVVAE

T4: Cynomolgus Monkey Leg α7 (cynomolgus monkey, UniProt A0A2K5UNI0 679-1078)
T4 construct: domain: Leg α7
T4 sequence: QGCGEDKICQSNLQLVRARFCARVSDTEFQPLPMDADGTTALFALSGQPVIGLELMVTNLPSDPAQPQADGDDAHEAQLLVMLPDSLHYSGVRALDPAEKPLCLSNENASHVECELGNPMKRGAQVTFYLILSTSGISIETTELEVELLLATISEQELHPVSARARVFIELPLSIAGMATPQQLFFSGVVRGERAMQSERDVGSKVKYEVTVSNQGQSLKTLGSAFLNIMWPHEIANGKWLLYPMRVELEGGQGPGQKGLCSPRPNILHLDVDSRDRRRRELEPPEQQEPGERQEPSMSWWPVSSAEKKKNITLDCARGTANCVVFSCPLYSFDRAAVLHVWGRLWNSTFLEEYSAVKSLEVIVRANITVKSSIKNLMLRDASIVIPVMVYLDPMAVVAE


Columns and labels:
human α7 calf-1 protein = target: T1, human α7 calf-1 protein; assay: binding ELISA, panel 'Human a7 Calf1 vs Ab2'
Mouse Leg α7 = target: T2, Mouse Leg α7; assay: SPR
Human Leg α7 = target: T3, Human Leg α7; assay: SPR
[1] = target: T5, Cynomolgus Monkey α7β1 Ecto Domain (cynomolgus monkey, UniProt A0A2K5UNI0 34-1082; H9FU31 21-728); assay: SPR
T5 construct: extracellular domain; Heterodimer

Cynomolgus Monkey Leg α7 = target: T4, Cynomolgus Monkey Leg α7; assay: SPR
[2] = target: Human α7β1 Ecto Domain (human) (UniProt Q13683); assay: SPR
[3] = target: Human α7β1 Ecto Domain (human) (UniProt Q13683); assay: cell-based or functional assay
Human α7β1 (human) [4] = target: Human α7β1 (human) (UniProt Q13683); assay: cell-based or functional assay
Human α7β1 (human) [5] = target: Human α7β1 (human) (UniProt Q13683); assay: cell-based or functional assay; remark: listed apart in the source
Cynomolgus Monkey α7β1 = Cynomolgus Monkey α7β1 (cynomolgus monkey, UniProt A0A2K5UNI0 34-1181; H9FU31 21-798); assay: cell-based or functional assay
Human α7β1 (human) [6] = target: Human α7β1 (human) (UniProt Q13683); assay: cell binding, DMD myoblast cells, with Mn-BOP
Mouse α7β1 [7] = target: T6, Mouse α7β1 (mouse, UniProt Q61738 34-1179; P09055 21-798); assay: cell binding, mouse α7β1 cells, with Mn-BOP
T6 construct: whole, on cells; also called mouse α7β1 cells
T6 sequence (Q61738 34-1179, chain 1 of 2): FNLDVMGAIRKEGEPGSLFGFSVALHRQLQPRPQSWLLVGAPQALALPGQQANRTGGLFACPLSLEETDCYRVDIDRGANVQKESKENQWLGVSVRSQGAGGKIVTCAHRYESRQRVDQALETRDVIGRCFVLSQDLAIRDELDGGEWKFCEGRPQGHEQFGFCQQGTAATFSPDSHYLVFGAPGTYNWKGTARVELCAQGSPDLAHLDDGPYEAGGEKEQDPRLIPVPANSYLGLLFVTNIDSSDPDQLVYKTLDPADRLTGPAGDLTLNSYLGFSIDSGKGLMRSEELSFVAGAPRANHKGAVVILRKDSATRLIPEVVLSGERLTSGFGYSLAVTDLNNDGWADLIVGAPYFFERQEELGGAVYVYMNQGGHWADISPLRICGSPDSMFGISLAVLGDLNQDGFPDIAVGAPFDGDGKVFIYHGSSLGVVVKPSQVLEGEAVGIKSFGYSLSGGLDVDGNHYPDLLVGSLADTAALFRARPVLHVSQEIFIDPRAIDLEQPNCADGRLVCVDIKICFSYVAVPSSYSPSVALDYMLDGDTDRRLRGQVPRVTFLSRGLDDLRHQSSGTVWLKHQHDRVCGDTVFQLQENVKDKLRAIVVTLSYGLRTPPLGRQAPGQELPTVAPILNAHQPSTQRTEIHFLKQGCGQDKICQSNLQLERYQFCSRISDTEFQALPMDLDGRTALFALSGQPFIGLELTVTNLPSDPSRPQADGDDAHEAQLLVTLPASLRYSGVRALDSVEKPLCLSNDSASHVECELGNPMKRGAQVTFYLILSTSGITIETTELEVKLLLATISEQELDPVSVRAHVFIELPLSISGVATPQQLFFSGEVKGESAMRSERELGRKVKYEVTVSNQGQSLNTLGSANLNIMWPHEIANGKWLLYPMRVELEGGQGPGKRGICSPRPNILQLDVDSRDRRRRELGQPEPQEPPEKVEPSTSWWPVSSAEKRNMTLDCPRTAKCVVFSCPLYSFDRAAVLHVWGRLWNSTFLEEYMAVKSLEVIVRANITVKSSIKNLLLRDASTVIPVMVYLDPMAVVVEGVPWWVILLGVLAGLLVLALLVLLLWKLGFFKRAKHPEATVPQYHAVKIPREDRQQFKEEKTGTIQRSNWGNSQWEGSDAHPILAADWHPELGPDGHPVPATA
T6 sequence (P09055 21-798, chain 2 of 2): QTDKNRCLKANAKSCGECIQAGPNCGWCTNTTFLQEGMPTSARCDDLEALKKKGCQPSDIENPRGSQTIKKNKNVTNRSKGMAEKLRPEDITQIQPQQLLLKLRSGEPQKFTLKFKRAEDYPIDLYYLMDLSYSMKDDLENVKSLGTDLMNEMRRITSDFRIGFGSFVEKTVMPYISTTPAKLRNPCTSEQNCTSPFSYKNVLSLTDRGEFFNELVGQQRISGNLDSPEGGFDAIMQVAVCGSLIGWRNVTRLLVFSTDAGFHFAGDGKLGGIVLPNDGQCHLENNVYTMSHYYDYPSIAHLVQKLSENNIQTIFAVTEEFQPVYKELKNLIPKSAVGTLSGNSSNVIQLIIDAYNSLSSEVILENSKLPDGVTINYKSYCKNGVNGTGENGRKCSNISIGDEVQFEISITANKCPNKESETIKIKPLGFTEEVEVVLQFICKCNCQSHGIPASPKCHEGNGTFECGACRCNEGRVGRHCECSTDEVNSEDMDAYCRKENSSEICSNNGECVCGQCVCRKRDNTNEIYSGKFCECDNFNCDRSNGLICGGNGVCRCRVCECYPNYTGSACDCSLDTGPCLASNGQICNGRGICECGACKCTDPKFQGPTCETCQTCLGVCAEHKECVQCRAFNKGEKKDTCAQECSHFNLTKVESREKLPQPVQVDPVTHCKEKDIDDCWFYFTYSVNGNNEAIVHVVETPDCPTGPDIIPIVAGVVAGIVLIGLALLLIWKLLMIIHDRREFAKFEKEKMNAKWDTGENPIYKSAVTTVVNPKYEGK

[8] = target: Mouse α7β1 Ecto Domain (mouse) (UniProt Q61738); assay: SPR
[9] = target: Mouse α7β1 Ecto Domain (mouse) (UniProt Q61738); assay: cell-based or functional assay
Mouse α7β1 [10] = target: T6, Mouse α7β1; assay: cell-based or functional assay

| Binder | Kd (Human Leg α7) | Kd [1] | Kd (Cynomolgus Monkey Leg α7) | Kd [2] | Emax (%*), Solid Phase Assay [3] | EC50 (nM), ECIS, DMD-1 myoblast cells (Human α7β1 (human) [4]) | EC50 (nM), ECIS, DMD-2 myoblast cells (Human α7β1 (human) [4]) | EC50 (nM), ECIS, Non-DMD myoblast cells (Human α7β1 (human) [4]) | Emax (% of RefAb1), ECIS, DMD-1 myoblast cells (Human α7β1 (human) [4]) | Emax (% of RefAb1), ECIS, DMD-2 myoblast cells (Human α7β1 (human) [4]) | Emax (% of RefAb1), ECIS, Non-DMD myoblast cells (Human α7β1 (human) [4]) | Emax (%*), Cell Adhesion Assay (Human α7β1 (human) [4]) | EC50 (nM), Cell Adhesion Assay (Cynomolgus Monkey α7β1) | Emax (%*), Cell Adhesion Assay (Cynomolgus Monkey α7β1) | EC50 (Human α7β1 (human) [6]) | other results |
| --- | --- | --- | --- | --- | --- | --- | --- | --- | --- | --- | --- | --- | --- | --- | --- | --- |
| Ab2 (antibody, V domains shown, Human anti-α7β1 antibody (hybridoma, human transgenic mouse); Ab28 and Ab29 are full chains with the same CDRs) VH: EVQLVESGGGLVKPGGSLRLSCAASGFTFSSYTMNWVRQAPGKGLEWVSSISIVGNYIYYADSLKGRFTISRDNAKNSLYLQMNSLRAEDTAVYYCARRKWEHDAFDIWGQGTMVTVSS VL: SSELTQDPAVSVALGQTVRITCQGDSLRSYYASWYQQKPGQAPVLVIYGKNNRPSGIPDRFSGSSSGNTASLTITGAQAEDEADFYCTSRDNSGNHVVFGGGTKLTVL | 1.58 nM | 23 nM | 19.4 nM | 5.69 nM | 97% | 14.8 nM | 41.1 nM | 23.3 nM | 289 % of RefAb1 | 240 % of RefAb1 | 124 % of RefAb1 | 122% | 3.31 nM | 115% | 41.1 nM | binding result (human α7 calf-1 protein): no binding; binding result (Mouse Leg α7): no binding; EC50 (nM), Solid Phase Assay [3]: 0.4 nM; EC50 (nM), Cell Adhesion Assay (Human α7β1 (human) [4]): 5.1 nM; EC50 (nM), a7b1 activation assay (Human α7β1 (human) [4]): 2.91 nM; EC50 (ug/mL), a7b1 activation assay (Human α7β1 (human) [4]): 0.44 µg/mL; Emax (% TS2/16), a7b1 activation assay (Human α7β1 (human) [4]): 117 % TS2/16; Emax (F.C.), a7b1 activation assay (Human α7β1 (human) [4]): 2.75 F.C.; EC50 (nm), a7b1 activation assay (Human α7β1 (human) [5]): 2.8 nM; EC50 (ug/mL), a7b1 activation assay (Human α7β1 (human) [5]): 0.42 µg/mL; Emax (% TS2/16), a7b1 activation assay (Human α7β1 (human) [5]): 100 % TS2/16; Emax (F.C.), a7b1 activation assay (Human α7β1 (human) [5]): 2.09 F.C. |
| Ab8 (antibody, V domains shown, Mouse anti-α7β1 antibody (hybridoma, α7 knock-out mouse); also called AbS) VH: QVPLQQSGPQLVRPGASVKISCKASGYSFTRYWMHWVKQRPGQGLDWIGKIDPSDSETRLNQEFRDKATLTVDKSSSTAYLQLSSPTSEDSAVYYCARGGYFGEGWYFDVWGAGTTVTVSS VL: DVVMTQIPLSLPVSLGDQASISCRSSQSLVHRNGNTYLHWYLQKPGQSPKLLIYKVSNRFSGVPDRFSGSGSGTDFTLKISRVEAEDLGVYFCSQSTHVPWTFGGGTKLEIK | 25 nM | 225 nM | 32.3 nM | 184 nM | 89% | 10 nM | 32 nM | 41.6 nM | 264 % of RefAb1 | 130 % of RefAb1 | 100 % of RefAb1 | 117% | 1.69 nM | 102% | 32.6 nM | EC50 (Mouse α7β1 [7]): 22.6 nM; Kd (Mouse Leg α7): 1.42 nM; Kd [8]: 5.46 nM; EC50 (nM), Solid Phase Assay (6xHis α7β1 ectodomain on coated laminin-221) [3]: 0.77 nM; EC50 (nM), Solid Phase Assay [9]: 1.55 nM; Emax (%*), Solid Phase Assay [9]: 148%; EC50 (nM), Cell Adhesion Assay (K562 cells expressing α7β1 on laminin-221) (Human α7β1 (human) [4]): 3.94 nM; EC50 (nM), Cell Adhesion Assay (Mouse α7β1 [10]): 3.82 nM; Emax (%*), Cell Adhesion Assay (Mouse α7β1 [10]): 144% |
